Key:
[1] = biological target: Staphylococcus aureus 70S ribosome (S. aureus NCTC 8325-4 (endogenous)) (UniProt Q2FW21); assay: cryo-EM structure; FA complex: 0.5 uM S. aureus 70S, 2 uM mRNA Z4AUGGCA, 2 uM E. coli tRNAfMet, 5 uM S. aureus EF-G, 400 uM FA, 1 mM GTP in HEPES polymix buffer (20 mM HEPES pH 7.5, 5 mM BME), 10 min steps at 37 °C; 1 ul of 25 uM FusB with 400 uM FA mixed into the drop on the grid; CHI state 2.5 Å (modelled), POST state 3.1 Å (not modelled)
[2] = biological target: Staphylococcus aureus 70S ribosome (S. aureus NCTC 8325-4 (endogenous)) (UniProt Q2FW21); assay: cryo-EM structure; FA-CP complex: as the FA complex but with 5 uM E. coli tRNAfMet and 400 uM FA-CP instead of FA; CHI state 2.0 Å, POST state 2.4 Å
[3] = biological target: T1, Staphylococcus aureus elongation factor G (Staphylococcus aureus, UniProt P68790 1-693); assay: cryo-EM structure; FA complex: 0.5 uM S. aureus 70S, 2 uM mRNA Z4AUGGCA, 2 uM E. coli tRNAfMet, 5 uM S. aureus EF-G, 400 uM FA, 1 mM GTP in HEPES polymix buffer (20 mM HEPES pH 7.5, 5 mM BME), 10 min steps at 37 °C; 1 ul of 25 uM FusB with 400 uM FA mixed into the drop on the grid; CHI state 2.5 Å (modelled), POST state 3.1 Å (not modelled); conditions: both partners purified
T1 construct: Ser-Leu that remains at the N-terminus after TEV cleavage of the 6xHis tag and linker; In the complexes EF-G carries GDP, magnesium and FA or FA-CP; also called EF-G; S. aureus EF-G; source: E. coli BL21 (DE3), purified (Ni Sepharose, TEV cleavage, reverse IMAC, Superdex-200 gel filtration); not shown: 6xHis, N-terminal, cleaved

Molecule	percent of ribosomes bound to EF-G [1] [%]	percent of 70S particles that contain EF-G [2] [%]	binding result [3]
Staphylococcus aureus elongation factor G (from UniProt P68790 1-693) (natural protein)	60	72	
Staphylococcus aureus ribosomal protein uL6 (natural protein, S. aureus NCTC 8325-4 (endogenous), UniProt Q2FW21 1-178, looked up, Large-subunit ribosomal protein uL6 of S. aureus, encoded by rplF, as it stands in the native 70S ribosome; Present as a subunit of the 70S ribosome, not as an isolated protein; source: endogenous, in 70S ribosomes purified from S. aureus NCTC 8325-4 (sucrose cushions, zonal centrifugation)) MSRVGKKIIDIPSDVTVTFDGNHVTVKGPKGELSRTLNERMTFKQEENTIEVVRPSDSKEDRTNHGTTRALLNNMVQGVSQGYVKVLELVGVGYRAQMQGKDLILNVGYSHPVEIKAEENITFSVEKNTVVKVEGISKEQVGALASNIRSVRPPEPYKGKGIRYQGEYVRRKEGKTGK			binds
